Assay results published in paper PMC6625847 (Molecular cell, 2019).
Where a chain is given by its changes, count along the chain named. Numbers in names are those of the source. Where “and” joins values, the source holds several entries; their conditions need not be identical. Identical values can stand only once. Like-named read-outs stand apart in the source and are kept apart here.

How the values were obtained:
[1] = molecular target: Arc (Arg3.1) (UniProt Q63053); assay: dynamic light scattering of oligomer size; conditions: reference: wild type; sites T278
[2] = molecular target: full-length ArcG277D (rat) (UniProt Q63053); assay: dynamic light scattering
[3] = molecular target: full-length ArcK257A (rat) (UniProt Q63053); assay: dynamic light scattering
[4] = molecular target: full-length ArcQ241A (rat) (UniProt Q63053); assay: dynamic light scattering
[5] = molecular target: full-length ArcS260D (rat) (UniProt Q63053); assay: dynamic light scattering
[6] = molecular target: full-length ArcS260D,T278A (rat) (UniProt Q63053); assay: dynamic light scattering
[7] = molecular target: full-length ArcS260D,T278D (rat) (UniProt Q63053); assay: dynamic light scattering
[8] = molecular target: the molecule itself; assay: dynamic light scattering
[9] = molecular target: the molecule itself; assay: dynamic light scattering; remark: listed apart in the source

“Arc (Arg3.1) (from UniProt Q63053) T278D” was tested, and the “other: oligomer mass from DLS after 6 min at 30°C” value [1] was “weaker; reference ~2458”.

For “full-length ArcG277D (from UniProt Q63053 1-396) (natural protein)”, the stoichiometry N [2] was 4.

With “full-length ArcK257A (from UniProt Q63053 1-396) (natural protein)” the stoichiometry N [3] was 4.

With “full-length ArcQ241A (from UniProt Q63053 1-396) (natural protein)” the stoichiometry N [4] was 4.

“full-length ArcS260D (from UniProt Q63053 1-396) (natural protein)” showed a stoichiometry N [5] of 4.

Work on “full-length ArcS260D,T278A (from UniProt Q63053 1-396) (natural protein)” yielded a stoichiometry N [6] of 4.

Work on “full-length ArcS260D,T278D (from UniProt Q63053 1-396) (natural protein)” yielded a stoichiometry N [7] of 4.

B1: full-length Rn Arc (wild type) (natural protein, rat, UniProt Q63053 1-396, looked up)
chain: MELDHMTTGGLHAYPAPRGGPAAKPNVILQIGKCRAEMLEHVRRTHRHLLTEVSKQVERELKGLHRSVGKLENNLDGYVPTGDSQRWKKSIKACLCRCQETIANLERWVKREMHVWREVFYRLERWADRLESMGGKYPVGSEPARHTVSVGVGGPEPYCQEADGYDYTVSPYAITPPPAAGELPEQESVGAQQYQSWVPGEDGQPSPGVDTQIFEDPREFLSHLEEYLRQVGGSEEYWLSQIQNHMNGPAKKWWEFKQGSVKNWVEFKKEFLQYSEGTLSREAIQRELDLPQKQGEPLDQFLWRKRDLYQTLYVDAEEEEIIQYVVGTLQPKFKRFLRHPLPKTLEQLIQRGMEVQDGLEQAAEPSVTPLPTEDETEALTPALTSESVASDRTQPE
B1 was tested, and the “stoichiometry N” value [8] was ~32 and ~48 and the “stoichiometry N” value [9] was 4.

B2: full-length ArcT278D (natural protein, rat, UniProt Q63053 1-396, looked up)
chain: B1 chain with T278D
B2 was tested, and the “stoichiometry N” value [8] was roughly 24 and the “stoichiometry N” value [9] was 4.

B3: full-length ArcS260A,T278A (natural protein, rat, UniProt Q63053 1-396, looked up)
chain: B1 chain with S260A, T278A
B3: binds [8].

B4: full-length ArcS260A (natural protein, rat, UniProt Q63053 1-396, looked up)
chain: B1 chain with S260A
B4: binds [8].
